Earlier results in patent US11795217B2, “Interleukin-1 inhibition for combination treatment of pancreatic cancer cachexia” (Cedars-Sinai Medical Center, priority 2018, dated 2023).

Legend:
[1] = tested on: patients with advanced cancer and cancer-associated symptoms; conditions: in vivo, 7.5 mg/kg
[2] = tested on: patients with refractory cancers
[3] = tested on: patients with metastatic colorectal cancer

In the case of bermekimab, the drug-related toxicities [1] is given as “no definite drug-related toxicities”, the “patients with a positive DXA outcome as defined for the responder endpoint” value ([2]; 61 patients) is given as 62 % of evaluable patients and the minimum effective dose ([2]; every 2 weeks, dose escalation study) is given as 3.75 mg/kg. For the same substance, the dose limiting toxicity ([2]; human, in vivo) was “no dose limiting toxicity”, the “grade ¾ toxicities: fatigue” value ([2]; human, in vivo) was 13% and the “grade ¾ toxicities: nausea” value ([2]; human, in vivo) was 13%. For the same substance, the “grade ¾ toxicities: proteinuria” value ([2]; human, in vivo) was 21%, the “average LBM (lean body mass) change” value ([2]; patients with positive DXA outcome) was 2.1 ± 2.8 kg and the “response to treatment (primary outcome)” value ([3]; 309 patients, randomized 2:1, placebo 19%, p=0.0045) was 33%. The “relative reduction in the number of SAEs” value ([3]; human, in vivo) was 26%.
